B1: MFF (parent)
chain: YTEGISQRMRVPEKLKVAPPNADL
B2: ZNF24 (parent)
chain: THTKEQILELVVLEQFVAILPKEL

Variants of: B1
Assay: protein stability index of a GFP-peptide fusion (GPS, HEK-293T) (PSI 1-6); higher = more stable
Settings: c terminus: a fixed tail appended
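Also: lentivirally expressed fusions sorted by FACS into six bins by GFP to DsRed ratio, PSI derived from sequencing read proportions per bin multiplied by bin number.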

Protein stability index of substitutions, site by site:
Q7: C 2.9, D 3.43, A 2.97, T 2.71, P 3.4, W 2.21, L 2.77, H 1.81, S 2.45, M 2.59, G 2.65, Y 1.75, N 2.74, I 2.85, V 3.21, F 1.82, K 2.39, E 3.26, R 2.81
E3: F 1.9, S 2.54, A 2.96, I 2.42, H 2.92, N 3.3, W 1.53, C 2.28, P 2.29, L 2.58, R 3.03, D 3.24, M 2.48, V 2.44, G 2.3, Y 2.69, Q 3.01, K 2.41, T 2.56
G4: D 4.46, K 3.63, F 2.32, N 3.75, V 3.21, M 2.52, Y 2.69, W 2.25, T 3.45, E 3.61, C 3.47, S 3.88, P 3.79, R 3.72, I 3, H 3.46, A 3.9, Q 3.5, L 2.47
I5: T 3.9, P 4.33, V 3.63, H 3.81, W 2.75, E 4.78, N 4.03, C 4.16, Y 2.41, Q 4.44, A 4.19, D 4.55, R 3.78, G 3.72, S 4.16, M 3.4, K 4.18, L 3.06, F 2.13
R8: G 2.47, A 2.82, I 1.57, S 2.43, N 3.18, H 2.28, D 3.76, C 2.47, K 2.52, P 2.81, W 2.3, M 2.16, L 2.2, F 1.95, Q 2.79, V 2.6, T 2.76, Y 1.75, E 3.6
S6: I 2.51, N 2.93, F 2.14, V 2.19, M 2.09, H 2.63, A 2.76, T 2.98, P 2.29, W 2.52, C 2.6, D 3.51, Q 2.71, K 2.45, Y 3.1, R 2.94, E 3.91, L 2.85, G 2.86
T2: N 3.69, R 3.88, I 1.65, V 2.46, E 4.85, A 2.72, S 3.81, C 2.65, M 3.46, G 3.85, H 2.69, K 3.92, D 4.18, F 3.2, W 3.17, Y 3.2, Q 3.03, L 2.13, P 3.48
R10: I 2.97, M 2.48, H 2.52, Y 2.08, E 2.83, L 3.06, T 2.6, S 2.72, Q 3.11, W 3.33, F 1.44, A 2.17, K 3.16, D 2.71, V 2.49, P 3.44, N 2.59, G 2.83, C 2.74
E13: A 2.95
Y1: G 4.57, V 4.25, T 4.31, P 4.64, N 4.67, F 2.52, R 4.22, D 4.48, H 4.52, C 4.21, M 4.59, S 4.48, I 3.87, Q 4.41, L 4.21, K 4.27, E 4.55, W 4.21, A 4.62
M9: R 2.54, K 3.37, L 3.22, I 2.2, W 2.01, H 3.17, Y 2.57, A 2.41, E 2.89, N 2.96, S 2.55, V 2.35, G 2.89, C 2.49, D 3.57, Q 2.79, T 2.74, P 3.27, F 3.02
V11: L 2.59, H 2.96, D 2.75, Y 2.6, Q 2.62, S 3.29, R 2.48, A 2.89, E 2.84, W 2.18, P 2.78, M 3.11, N 2.91, C 2.8, F 2.7, K 2.76, I 2.96, T 3.24, G 2.9
P12: C 2.14, V 2.64, H 2.77, E 2.69, L 2.42, T 2.09, R 2.82, K 2.57, Y 2.58, Q 2.78, I 2.21, G 2.46, F 1.88, N 2.96, S 2.53, M 2.59, W 2.46, A 3.06, D 2.73

Variants of: B2
Assay: as above
Settings: c terminus: a fixed tail appended

Protein stability index: each site, then its substitutions
P21: E 2.23, M 3.76, I 1.92, Q 2.66, T 2.57, A 3.78, V 2.28, L 2.44, Y 3.02, H 3.6, D 4.16, S 1.42, G 2.21, W 3.12, F 1.92, N 3.62, C 3.76, K 3.31, R 3.28
K22: R 2.78, P 2.18, G 4.16, A 2.63, C 2.67, T 2.89, F 3.51, Q 2.7, S 3.45, N 2.39, D 3.16, M 3.15, Y 2.9, W 2.08, V 2.71, H 2.12
I19: M 3.34, V 4.1, Y 2.18, L 2.38, R 2.16, N 1.7, Q 2.01, K 2.14, S 1.95, W 1.85, P 1.73, H 2.32, T 1.8
L24: N 1.06, Y 3.41, P 4.16, K 2.33, Q 1.81, G 2.16, C 2.88, V 4.07, D 1.67, W 2.54, R 2.47, H 2.66, S 2.86, I 2.4, T 2.7, E 1.7, A 2.57, F 3.54, M 2.8
L20: K 1.63, H 1.67, S 2.33, M 1.95, I 3.78, D 2.6, R 2.61, Y 1.46, T 2.44, V 2.19, Q 3.05, N 1.83, W 4.08, F 2.83, C 2.24, E 2.23, A 3.07, G 1.94, P 2.78
E23: D 2.29, R 2.77, Y 3.09, N 2.97, S 2.01, G 3.15, P 3.16, A 2.59, Q 2.54, H 3.33, C 3.17, W 3.51, T 1.75, V 2.76, K 1.64, L 1.68, F 2.69, M 3.72, I 2.56

Reference: the supplement of paper PMC10567573
